Substrate: O=S(=O)(O)CCSSCCS(=O)(=O)O
Test: purified protein, by the assay type
Details: pH 7.0; 25.0 °C

B1: Thioredoxin Reductase + Thioredoxin (Bos taurus) (protein)
chain: MVKQIESKYAFQEALNSAGEKLVVVDFSATWCGPCKMIKPFFHSLSEKYSNVVFLEVDVDDCQDVAAECEVKCMPTFQFFKKGQKVGEFSGANKEKLEATINELI
  Km: 72 µM
